5 molecules from patent US20070174009A1, “Methods and systems for analyzing a network of biological functions” (National Institute Of Advanced Industrial Science And …, priority 2004, published 2007) can be followed below.

Experiment [1] concerns human neuroblastoma SHSY5Y. The experiment in a line: Marker enzyme expression (ChAT, TH) in the presence of each ligand of the receptor tyrosine kinase. The conditions noted are these: SHSY5Y cells, ChAT vs TH, beta-actin control, FIG. 19. The format is cell-based. An excerpt:
Cholinergic neuron-like cells were identified by using anti-choline acetyltransferase antibody, and dopaminergic neuron-like cells were identified by using anti-tyrosine hydroxylase antibody, both of which are available from Clontech.
Next, the marker enzyme expression in the presence of each ligand of the receptor tyrosine kinase has been studied.

The subject of experiment [2] is human neuroblastoma SHSY5Y. The experiment in a line: Differentiation (neuritegenesis) of SH-SY5Y cells by RA or NGF. The conditions noted are these: SH-SY5Y culture with RA or NGF added, FIG. 13. It is filed as cell-based. How it is done:
Human neuroblastoma (SHSY5Y) cells were maintained in Eagle's minimum essential medium (EMEM) supplemented with 10% (v/v) foetal bovine serum (FBS), 2% (v/v) glutamine and 1% (v/v) penicillin/streptomycin (10% medium), hereafter referred to as growth medium. Cells were incubated at 37° C. in a humidified atmosphere of 5% carbon dioxide.
Differentiation has been performed according to Yamada Y. et al., Neurosci Lett. 2004 Jun. 24; 364(1):11-15. Briefly, 100 ng/ml of NGF or […] of retinoic acid was added to the culture medium differentiate the SHSY5Y cells. Usually, when retinoic acid is added, the cell differentiates into cholinergic neuron-like cell as exemplified in FIG. 13. When NGF is added, the cell differentiates into dopaminergic neuron-like cells as exemplified in FIG. 13.

Consider “insulin: ligand of receptor tyrosine kinase INSR [reference compound]”, for which the “Marker enzyme expression (ChAT, TH) in the presence of ligand” value (“Marker enzyme expression (ChAT, TH)” below) in experiment [1] is recorded as “dopaminergic”.

B1: Pehrin A3: ligand of receptor tyrosine kinases EPHA2 and EPHA3 (protein, UniProt P52797 23-214, looked up)
Ephrin-A3: QGPGGALGNRHAVYWNSSNQHLRREGYTVQVNVNDYLDIYCPHYNSSGVGPGAGPGPGGGAEQYVLYMVSRNGYRTCNASQGFKRWECNRPHAPHSPIKFSEKFQRYSAFSLGYEFHAGHEYYYISTPTHNLHWKCLRMKVFVCCASTSHSGEKPVPTLPQFTMGPNVKINVLEDFEGENPQVPKLEKSISG
As to B1, the “Marker enzyme expression (ChAT, TH)” value in experiment [1] is recorded as “dopaminergic”.

B2: NGF: NGF (Sigma 2.5 S #N-6009) (protein, UniProt P01139 122-241, looked up)
Beta-nerve growth factor: SSTHPVFHMGEFSVCDSVSVWVGDKTTATDIKGKEVTVLAEVNINNSVFRQYFFETKCRASNPVESGCRGIDSKHWNSYCTTTHTFVKALTTDEKQAAWRFIRIDTACVCVLSRKATRRG
modifications: 2.5S NGF
For B2, in experiment [1], the “Marker enzyme expression (ChAT, TH)” value is reported as “dopaminergic”. In experiment [2], the “Differentiation of SH-SY5Y cells” value is on record as “differentiated into doperminergia neuron-like cells”.

B3: Ephrin B2: ligand of receptor tyrosine kinases EPHB1, EPHB2, EPHB3 (protein, UniProt P52799 28-333, looked up)
Ephrin-B2: IVLEPIYWNSSNSKFLPGQGLVLYPQIGDKLDIICPKVDSKTVGQYEYYKVYMVDKDQADRCTIKKENTPLLNCAKPDQDIKFTIKFQEFSPNLWGLEFQKNKDYYIISTSNGSLEGLDNQEGGVCQTRAMKILMKVGQDASSAGSTRNKDPTRRPELEAGTNGRSSTTSPFVKPNPGSSTDGNSAGHSGNNILGSEVALFAGIASGCIIFIVIIITLVVLLLKYRRRHRKHSPQHTTTLSLSTLATPKRSGNNNGSEPSDIIIPLRTADSVFCPHYEKVSGDYGHPVYIVQEMPPQSPANIYYKV
Consider B3, for which the “Marker enzyme expression (ChAT, TH)” value in experiment [1] was “dopaminergic”.

B4: BDNF: ligand of receptor tyrosine kinase NTRK2 (protein, UniProt P23560 19-247, looked up)
Neurotrophic factor BDNF …: APMKEANIRGQGGLAYPGVRTHGTLESVNGPKAGSRGLTSLADTFEHVIEELLDEDQKVRPNEENNKDADLYTSRVMLSSQVPLEPPLLFLLEEYKNYLDAANMSMRVRRHSDPARRGELSVCDSISEWVTAADKKTAVDMSGGTVTVLEKVPVSKGQLKQYFYETKCNPMGYTKEGCRGIDKRHWNSQCRTTQSYVRALTMDSKKRIGWRFIRIDTSCVCTLTIKRGR
Take B4: in experiment [1], the “Marker enzyme expression (ChAT, TH)” value is listed as “dopaminergic”.
